One series relates to human serum proteins. The series can be described thus: Serum protein (albumin) binding by ultrafiltration, human serum. It counts as in vitro ADME. The following applies: 37° C. The protocol:
The devices were pre-treated with PBS containing Tween 20 (5% v/v) as disclosed in Hausner 2007, followed by triplicate rinses with PBS. An aliquot of each formulated radiotracer in PBS (≤25 μL, 20-60 KBq) was thoroughly mixed with 0.5 mL serum at 37° C. in a microfuge tube. The mixture was incubated at 37° C. for 5 min and an aliquot (50 μL) of was transferred to a tube for γ-counting. The remaining sample was transferred to a Centrifree Ultrafiltration device and centrifuged for 40 min. at 1500×g at ambient temperature (20-24° C.). An aliquot (50 μL) of the filtrate was transferred to a tube for γ-counting. For each radiotracer, a blank was run using 0.5 mL PBS/Tween 20 (5% v/v) instead of serum (n=4) to determine non-specific binding. Following γ-counting, the protein-bound radioactivity was calculated by subtracting the counts measured in the filtrate aliquot (i.e., not protein bound) from the counts in the corresponding serum aliquot. The data are expressed as mean±standard deviation of fraction of radioactivity bound to protein after subtraction of non-specific binding determined in the blank.

For series [1], the system named is locally advanced, unresectable or metastatic pancreatic adenocarcinoma. The series can be described thus: Single institution pilot study, 3+3 dose escalation. The conditions noted are these: individual patients. It counts as in vivo, human. The source says:
Patients first underwent a single microdose of [^68Ga]Ga DOTA-5G PET/CT to assess eligibility for the [^177Lu]Lu DOTA-ABM-5G therapy. Only patients with sufficient lesion uptake (any visualized lesion with SUVmax>2-fold above normal lung or liver) were offered therapy with [^177Lu]Lu DOTA-ABM-5G. The study was designed as a 3+3 dose escalation study with [^177Lu]Lu DOTA-ABM-5G. The treatment regimen consisted of one dose of [^177Lu]Lu DOTA-ABM-5G. The 3+3 design included three patients for the first activity level group (25 mCi) (see Table 4, below). Dose-limiting toxicity (DLT) is defined as any treatment related AE≥grade 3 (G3). In addition, the radiation dose to the kidneys must not exceed 23 Gy and the dose to the bone marrow must not exceed 1.5 Gy. If no DLT occurs within 30 days (after the third patient), 3 patients were then enrolled at the next dose level. Should a patient not be available for complete evaluation of treatment related toxicity within the 30 day DLT window due to non-treatment related issues, the patient was replaced for the purpose of DLT assessment at the same dose level. If DLT attributable to the study treatment is experienced in exactly ⅓ subjects in the first course, 3 more patients (for a total of 6) are treated at that dose level. The dose was escalated if no additional DLT is observed at the expanded dose level (i.e., ⅙ with DLT). Escalation stops as soon as two or more subjects experience DLT attributable to the study drugs. The highest dose (200 mCi limit) with no more than one DLT out of six patients is recommended for Phase II. The radiation dose to the kidneys must not exceed 23 Gy and the dose to the bone marrow must not exceed 1.5 Gy.
Patients deemed eligible based on the [^68Ga]Ga DOTA-5GPET/CT were scheduled to receive one dose of the [^177Lu]Lu DOTA-ABM-5G therapy within 4 weeks (±7 days) of the [^68Ga]Ga DOTA-5G scan. […] For renal protection purpose, a 4-hour co-infusion of an amino acid solution (containing L-lysine [between 18 g and 24 g] and L-arginine [between 18 g and 24 g] was started 30 minutes prior to the infusion of [^177Lu]Lu DOTA-ABM-5G and continued at a constant rate (250 cc/hr) for a total of 4 hours. The patient was monitored for one hour after completion of the amino acid solution infusion. Administration of the amino acid solution before, during and after the [^177Lu]Lu DOTA-ABM-5G therapy was based on experience with Lu-177 DOTATATE to flush the radionuclide through the proximal tubules and decrease the radiation dose to the kidneys. […]
The biodistribution and dosimetry was evaluated using nuclear imaging at 1 day and 7 days post-infusion of [^177Lu]Lu DOTA-ABM-5G. […]

“Also recorded” adds a separate entry of the source.

For the compound `CNC(=O)C(CCCCNC(=O)C(CC(=O)O)NC(=O)CCCNC(=O)CCCc1ccc(I)cc1)NC(=O)CN1CCN2CCN3CCN(CC1)CC(=O)[O][177Lu]([O]C(=O)C2)[O]C(=O)C3` (centres unmarked) [[^177Lu]Lu DOTA-ABM-5G], the “albumin (serum protein) binding” value with human serum proteins was 58.1±0.4%. In addition, in series [1] (Dose Level 1 (25 mCi)), the Current status entry is reported as “alive, increase in metastatic; also recorded: alive, stable disease; also recorded: Deceased (patient deteriorated” and the “Renal function over 90 days” value was “no change”. In addition, in series [1] (Dose Level 2 (50 mCi)), the Current status entry is given as “alive, no evidence of liver; also recorded: alive” and the “Renal function over 90 days” value was “no change”.

Source of the values: patent publication US12649008B2, “Peptide receptor radionuclide therapy” (The Regents of the University of California, priority 2020, dated 2026).
